Test results as given in paper PMC6086658, “Unified mechanisms for self-RNA recognition by RIG-I Singleton-Merten syndrome variants” (eLife, 2018).

T1: RIG-I Δ2CARD C268F (human, UniProt O95786 232-925, C268F)
T1 sequence: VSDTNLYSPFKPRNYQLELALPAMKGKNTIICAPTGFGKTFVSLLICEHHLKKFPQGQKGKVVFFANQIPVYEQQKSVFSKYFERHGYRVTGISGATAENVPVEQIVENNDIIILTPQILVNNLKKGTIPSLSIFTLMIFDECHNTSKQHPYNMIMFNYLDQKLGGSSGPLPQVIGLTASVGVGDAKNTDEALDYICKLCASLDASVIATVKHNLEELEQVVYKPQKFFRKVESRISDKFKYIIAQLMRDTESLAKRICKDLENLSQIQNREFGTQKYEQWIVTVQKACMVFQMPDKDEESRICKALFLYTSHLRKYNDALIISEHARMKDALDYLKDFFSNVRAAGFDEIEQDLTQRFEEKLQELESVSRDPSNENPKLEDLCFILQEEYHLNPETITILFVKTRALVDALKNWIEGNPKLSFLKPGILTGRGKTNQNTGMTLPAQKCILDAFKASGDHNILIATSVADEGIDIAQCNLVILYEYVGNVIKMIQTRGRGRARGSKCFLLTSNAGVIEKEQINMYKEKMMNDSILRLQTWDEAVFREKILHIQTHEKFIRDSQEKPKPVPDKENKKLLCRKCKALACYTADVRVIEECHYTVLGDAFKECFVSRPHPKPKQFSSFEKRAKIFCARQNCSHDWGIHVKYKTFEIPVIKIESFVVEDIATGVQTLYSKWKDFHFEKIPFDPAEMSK

T2: RIG-I wild type (human, UniProt O95786 1-925)
T2 sequence: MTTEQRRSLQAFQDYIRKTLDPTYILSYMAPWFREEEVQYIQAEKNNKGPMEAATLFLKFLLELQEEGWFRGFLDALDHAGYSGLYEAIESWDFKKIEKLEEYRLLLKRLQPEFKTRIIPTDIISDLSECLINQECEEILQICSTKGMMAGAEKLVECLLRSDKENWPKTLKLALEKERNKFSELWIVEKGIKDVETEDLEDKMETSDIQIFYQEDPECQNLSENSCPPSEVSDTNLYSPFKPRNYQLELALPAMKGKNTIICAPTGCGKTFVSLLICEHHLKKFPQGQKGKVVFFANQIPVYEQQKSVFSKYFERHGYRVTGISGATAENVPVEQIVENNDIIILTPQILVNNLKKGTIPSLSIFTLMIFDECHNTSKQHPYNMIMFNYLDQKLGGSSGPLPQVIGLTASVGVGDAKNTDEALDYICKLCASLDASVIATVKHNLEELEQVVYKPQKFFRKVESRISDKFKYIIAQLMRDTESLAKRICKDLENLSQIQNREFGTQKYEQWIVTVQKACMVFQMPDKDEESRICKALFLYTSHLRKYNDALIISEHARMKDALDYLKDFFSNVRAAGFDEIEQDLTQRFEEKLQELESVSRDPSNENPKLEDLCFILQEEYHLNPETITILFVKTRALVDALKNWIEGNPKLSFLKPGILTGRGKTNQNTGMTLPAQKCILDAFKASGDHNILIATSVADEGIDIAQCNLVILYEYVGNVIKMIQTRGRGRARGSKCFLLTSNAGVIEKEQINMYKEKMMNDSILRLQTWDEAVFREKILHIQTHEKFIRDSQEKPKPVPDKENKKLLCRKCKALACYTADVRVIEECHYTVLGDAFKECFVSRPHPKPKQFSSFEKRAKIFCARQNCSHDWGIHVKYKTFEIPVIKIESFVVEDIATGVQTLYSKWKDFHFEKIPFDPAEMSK

T3: RIG-I C268F (human, UniProt O95786 1-925, C268F)
T3 sequence: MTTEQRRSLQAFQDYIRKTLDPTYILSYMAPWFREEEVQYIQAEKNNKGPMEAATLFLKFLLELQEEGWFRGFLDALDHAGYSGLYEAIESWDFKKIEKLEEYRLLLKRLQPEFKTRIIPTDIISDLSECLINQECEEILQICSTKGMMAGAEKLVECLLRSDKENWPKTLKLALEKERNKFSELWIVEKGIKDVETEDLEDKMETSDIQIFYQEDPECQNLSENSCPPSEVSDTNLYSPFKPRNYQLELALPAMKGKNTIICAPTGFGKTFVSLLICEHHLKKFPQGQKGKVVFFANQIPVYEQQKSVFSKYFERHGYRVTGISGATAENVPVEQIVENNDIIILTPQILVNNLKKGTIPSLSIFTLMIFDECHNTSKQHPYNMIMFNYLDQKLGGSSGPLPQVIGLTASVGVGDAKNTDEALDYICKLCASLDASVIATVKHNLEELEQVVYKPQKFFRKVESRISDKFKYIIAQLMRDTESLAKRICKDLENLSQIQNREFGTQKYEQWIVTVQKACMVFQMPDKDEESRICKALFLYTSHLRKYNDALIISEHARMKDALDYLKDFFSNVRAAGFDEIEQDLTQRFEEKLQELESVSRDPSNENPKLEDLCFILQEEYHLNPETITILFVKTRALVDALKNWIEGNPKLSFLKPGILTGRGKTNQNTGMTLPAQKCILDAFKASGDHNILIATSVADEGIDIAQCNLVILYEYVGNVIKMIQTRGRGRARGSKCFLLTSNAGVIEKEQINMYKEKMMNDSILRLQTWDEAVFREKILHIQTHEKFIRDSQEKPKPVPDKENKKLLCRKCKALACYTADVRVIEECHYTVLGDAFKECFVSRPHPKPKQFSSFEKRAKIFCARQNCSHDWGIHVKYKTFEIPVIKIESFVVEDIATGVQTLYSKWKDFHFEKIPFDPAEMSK


Experiments:
RIG-I Δ2CARD C268F = biological target: T1, RIG-I Δ2CARD C268F; experiment: crystal structure; co-crystallized with ADP-BeFx or ATP; no nucleotide bound in structure; Fluorescence anisotropy: 25 mM HEPES pH 7, 50 mM KCl, 5 mM MgCl2, 1 mM DTT, +/- 5 mM ATP, 10 nM RNA, room temperature; conditions: protein: recombinant; tags: N-terminal His-tag (insect cells) or His-SUMO3 cleaved off (E. coli); blunt, palindromic self-duplex
RIG-I wild type = biological target: T2, RIG-I wild type; experiment: fluorescence anisotropy; no ATP, 5 mM Mg2+; Fluorescence anisotropy: 25 mM HEPES pH 7, 50 mM KCl, 5 mM MgCl2, 1 mM DTT, +/- 5 mM ATP, 10 nM RNA, room temperature; conditions: protein: recombinant; tags: N-terminal His-tag; label: 5'-Cy3; hairpin with non-base-paired ends
RIG-I C268F = biological target: T3, RIG-I C268F; experiment: as above; conditions: protein: recombinant; tags: N-terminal His-tag; label: 5'-Cy3; hairpin with non-base-paired ends

Binder	binding result (RIG-I Δ2CARD C268F)	binding result (RIG-I wild type)	binding result (RIG-I C268F)
14mer dsRNA (dsRNA) RNA 1: CGACGCUAGCGUCG RNA 2: CGACGCUAGCGUCG	binds	–	–
CCACCCGCCCCCCUAGUGAGGGGGGCGGGCC (structured_RNA) [Cy3-hpRNA (14mer stem hairpin)]	–	binds	binds
